Data published in US20240228986A1, “ENGINEERED CELLS, ENZYMES, AND METHODS FOR PRODUCING CANNABINOIDS” (priority 2021, published 2024).

B1: GPS1.1-F16-APT73.77: fusion protein, SEQ ID NO: 63 (protein)
chain: MSKAKFESVFPRISEELVQLLRDEGLPQDAVQWFSDSLQYNCVGGKLNRGLSVVDTYQLLTGKKELDDEEYYRLALLGWLIELLQAFWLVSDDIMDESKTRRGQPCWYLKPKVGMIAIWDAFMLESGIYILLKKHFRQEKYYIDLVELFHDISFKTELGQLVDLLTAPEDEVDLNRFSLDKHSFIVRYKTAYYSFYLPVVLAMYVAGITNPKDLQQAMDVLIPLGEYFQVQDDYLDNFGDPEFIGKIGTDIQDNKCSWLVNKALQKATPEQRQILEDNYGVKDKSKELVIKKLYDDMKIEQDYLDYEEEVVGDIKKKIEQVDESRGFKKEVLNAFLAKIYKRQKGGGSGGGSGGGSGGGGSMDEVYAAVEQTSRLLDVPCSPDRFEPVWKAFGDQLPDSHLVFSMAAGEAHRGELDFDFSLRPEGADPYTTALEHGFIEPTDHPVGSVLAEVGKRFAIASYGVEYGVVGGFKKSYAFFPLDDFPPLAQFAEVPSVPPCLAGHVETLTRLGFDDKVSIIGVNYRKNTLNVYLAASAVDTGDKLALLRAFGYPEPDARVRQFIERSFRLYPTFNWDSSAAERICFAVHTQQPGELPAPHDEPTEAFARQVPHVYEGGREFVSGVALAPSGASYYKLAALYQKARRCLD
modifications: GPS1.1-F16-APT73.77, geranyl diphosphate synthase, mutant soluble aromatic prenyltransferase fusion protein
B2: GPS1.1-F11-MPT26: fusion protein, SEQ ID NO: 26 (protein)
chain: MSKAKFESVFPRISEELVQLLRDEGLPQDAVQWFSDSLQYNCVGGKLNRGLSVVDTYQLLTGKKELDDEEYYRLALLGWLIELLQAFWLVSDDIMDESKTRRGQPCWYLKPKVGMIAIWDAFMLESGIYILLKKHFRQEKYYIDLVELFHDISFKTELGQLVDLLTAPEDEVDLNRFSLDKHSFIVRYKTAYYSFYLPVVLAMYVAGITNPKDLQQAMDVLIPLGEYFQVQDDYLDNFGDPEFIGKIGTDIQDNKCSWLVNKALQKATPEQRQILEDNYGVKDKSKELVIKKLYDDMKIEQDYLDYEEEVVGDIKKKIEQVDESRGFKKEVLNAFLAKIYKRQKGGAEAAAKEAAAKAGGSGGGSGGGGSGGSGGGGSGGGGSMSDNSIATKILNFGHTCWKLQRPYVVKGMISIACGLFGKELLHNTNLISWGLMWKAFFALVPILSFNFFAAIMNQIYDVDIDRINKPDLPLVSGEMSIETAWILSIIVALTGLIVTIKLKSAPLFVFIYIFGIFAGFAYSVPPIRWKQNPSTNFLITISSHVGLAFTSYSATTSALGLPFVWRPAFSFIIAFMTVMGMTIAFAKDISDIEGDAKYGVSTVATKLGARNMTFVVSGVLLLNYVAAILAGIIWPQAFNSNVMLLSHAILAFWLILQTRDFALTNYDPEAGRRFFEFIWLLYYAEYFVYVFI
modifications: GPS1.1-F11-MPT26, geranyl diphosphate synthase, recombinant membrane-bound prenyltransferase fusion protein
B3: GPS1.1-F18-APT73.77: fusion protein, SEQ ID NO: 65 (protein)
chain: MSKAKFESVFPRISEELVQLLRDEGLPQDAVQWFSDSLQYNCVGGKLNRGLSVVDTYQLLTGKKELDDEEYYRLALLGWLIELLQAFWLVSDDIMDESKTRRGQPCWYLKPKVGMIAIWDAFMLESGIYILLKKHFRQEKYYIDLVELFHDISFKTELGQLVDLLTAPEDEVDLNRFSLDKHSFIVRYKTAYYSFYLPVVLAMYVAGITNPKDLQQAMDVLIPLGEYFQVQDDYLDNFGDPEFIGKIGTDIQDNKCSWLVNKALQKATPEQRQILEDNYGVKDKSKELVIKKLYDDMKIEQDYLDYEEEVVGDIKKKIEQVDESRGFKKEVLNAFLAKIYKRQKGGGGSLEDPAVWEAGKVVAKGVGTADITATTSNGLIASSEEADNAATSMDEVYAAVEQTSRLLDVPCSPDRFEPVWKAFGDQLPDSHLVFSMAAGEAHRGELDFDFSLRPEGADPYTTALEHGFIEPTDHPVGSVLAEVGKRFAIASYGVEYGVVGGFKKSYAFFPLDDFPPLAQFAEVPSVPPCLAGHVETLTRLGFDDKVSIIGVNYRKNTLNVYLAASAVDTGDKLALLRAFGYPEPDARVRQFIERSFRLYPTFNWDSSAAERICFAVHTQQPGELPAPHDEPTEAFARQVPHVYEGGREFVSGVALAPSGASYYKLAALYQKARRCLD
modifications: GPS1.1-F18-APT73.77, geranyl diphosphate synthase, mutant soluble aromatic prenyltransferase fusion protein
B4: APT73.77-F17-GPS1.1: fusion protein, SEQ ID NO: 64 (protein)
chain: MDEVYAAVEQTSRLLDVPCSPDRFEPVWKAFGDQLPDSHLVFSMAAGEAHRGELDFDFSLRPEGADPYTTALEHGFIEPTDHPVGSVLAEVGKRFAIASYGVEYGVVGGFKKSYAFFPLDDFPPLAQFAEVPSVPPCLAGHVETLTRLGFDDKVSIIGVNYRKNTLNVYLAASAVDTGDKLALLRAFGYPEPDARVRQFIERSFRLYPTFNWDSSAAERICFAVHTQQPGELPAPHDEPTEAFARQVPHVYEGGREFVSGVALAPSGASYYKLAALYQKARRCLDGGGGSMSKAKFESVFPRISEELVQLLRDEGLPQDAVQWFSDSLQYNCVGGKLNRGLSVVDTYQLLTGKKELDDEEYYRLALLGWLIELLQAFWLVSDDIMDESKTRRGQPCWYLKPKVGMIAIWDAFMLESGIYILLKKHFRQEKYYIDLVELFHDISFKTELGQLVDLLTAPEDEVDLNRFSLDKHSFIVRYKTAYYSFYLPVVLAMYVAGITNPKDLQQAMDVLIPLGEYFQVQDDYLDNFGDPEFIGKIGTDIQDNKCSWLVNKALQKATPEQRQILEDNYGVKDKSKELVIKKLYDDMKIEQDYLDYEEEVVGDIKKKIEQVDESRGFKKEVLNAFLAKIYKRQK
modifications: APT73.77-F17-GPS1.1, mutant soluble aromatic prenyltransferase, geranyl diphosphate synthase fusion protein
B5: GPS1.1-F11-MPT31: fusion protein, SEQ ID NO: 27 (protein)
chain: MSKAKFESVFPRISEELVQLLRDEGLPQDAVQWFSDSLQYNCVGGKLNRGLSVVDTYQLLTGKKELDDEEYYRLALLGWLIELLQAFWLVSDDIMDESKTRRGQPCWYLKPKVGMIAIWDAFMLESGIYILLKKHFRQEKYYIDLVELFHDISFKTELGQLVDLLTAPEDEVDLNRFSLDKHSFIVRYKTAYYSFYLPVVLAMYVAGITNPKDLQQAMDVLIPLGEYFQVQDDYLDNFGDPEFIGKIGTDIQDNKCSWLVNKALQKATPEQRQILEDNYGVKDKSKELVIKKLYDDMKIEQDYLDYEEEVVGDIKKKIEQVDESRGFKKEVLNAFLAKIYKRQKGGAEAAAKEAAAKAGGSGGGSGGGGSGGSGGGGSGGGGSMSDNSIATKILNFGHACWKLQRPYVVKGMISIACGLFGRELLHNTNLISWGLMWKAFFALVPILSFNFFAAIMNQIYDLHIDRINKPDLPLASGEISVNTAWIMSIIVALTGLIVTIKLKSAPLFVFIYIFGIFAGFAYSVPPIRWKQNPSTNFLITISSHVGLAFTSYYASRAALGLPFELRPSFTFLLAFMTVMGMTIAFAKDISDIEGDAKYGVSTVATKLGARNMTFVVSGVLLLNYLVSISIGIIWPQVFKSNIMILSHAILAFWLILQTRDFALTNYDPEAGRRFFEFIWLLYYAEYLVYVFI
modifications: GPS1.1-F11-MPT31, geranyl diphosphate synthase, recombinant membrane-bound prenyltransferase fusion protein

Assays:
[1] = tested on: olivetolic acid; test: GPS-APT fusions, OA feed in vivo assay (Example 11); format: cell-based, Yarrowia; conditions: for CBGA / FCBGA: olivetolic acid feed as in Example 8, 48 h quench, strain sCL-SE-0128; for CBGA/FCBG: olivetolic acid feed, 48 h quench, product ratio
Procedure: (§1) As described below, plasmids pCL-SE-0406, pCL-SE-0664, pCL-SE-0663, pCL-SE-0662, pCL-SE-0380 (MPT4), pCL-SE-0337.MPT21, pCL-SE-0337.MPT26, and pCL-SE-0337.MPT31 were transformed into strain sCL-SE-0128. Multiple colonies per transformation were precultured for 48 h in YNB containing glucose (2%), casamino acids (0.5%), and MES (100 mM pH 6.5). Pre-culture was used to inoculate assay medium comprised of YNB containing glucose (2%), casamino acids (0.5%), MES (100 mM pH 6.5), and olivetolic acid (2 mM). Cultures were quenched with equal volume of ethanol after 48 h total growth and assayed for CBGA and FCBGA. Averages and standard deviations were calculated from replicates.
Soluble prenyl transferase APT73.77 was fused with GPS1.1 at the N- or C-terminus with different linkers creating the plasmids shown in Table 14. These fusion proteins were expressed and screened as described in Example 8 (olivetolic acid feed)
(§2) Overnight YPD (10 g/L yeast extract, 20 g/L peptone, 2% dextrose) cultures were inoculated from glycerol stocks of the appropriate strain and grown at 30° C. with 250 rpm shaking. Once cultures had reached an OD600 of 4-6, cultures were centrifuged at 500×g for 5 min, supernatants were discarded, and cell pellets were resuspended in equal volume of water. Resuspended cells were centrifuged at 500×g for 5 min, supernatants were discarded, and cells were resuspended in a volume (75 μL×OD×Vculture) of transformation cocktail (45% PEG-400, 0.1 M LiAc, 0.1 M DTT, and 25 ug/100 μL SS Salmon Sperm DNA). For each transformation, >1 μg of plasmid DNA was added to 55 μL cells/transformation cocktail and vortexed for 2 s. Transformations were incubated at 39° C. for 1 h with 250 rpm shaking. Transformations were resuspended in 750 μL YPD with 1 M sorbitol and recovered at 30° C. overnight with 250 rpm shaking. The next day, transformations were centrifuged at 500×g for 5 min, supernatants were discarded, and cell pellets were resuspended in 750 YPD. Resuspended transformations were plated on YPD with appropriate selection or YNBD (6.71 g/L yeast nitrogen base+nitrogen, 0.5% casamino acids, 2% dextrose) agar plates and grown at 30° C. for 2 days. Individual colonies were patched onto YPD plates with appropriate selection or YNBD plates and grown at 30° C. overnight. Patches were used to inoculate 0.5 mL YPD with appropriate selection or YNBD precultures in 96 w blocks and grown at 30° C. for 24-48 h with 1000 rpm shaking. For assays, 0.5 mL YPD with appropriate selection or YNBD cultures containing substrate were inoculated with 2 μL from precultures and grown at 30° C. for 2-4 days with 1000 rpm shaking with 2% glucose added every 24 h. Assay cultures were quenched by addition of 0.5 mL ethanol with 0.2% formic acid and 0.5 mg/mL pentyl-benzoic acid. Precipitates were pelleted by centrifuging at 4600×g for 10 min and then 200 μL was transferred to fresh plates, sealed, and analyzed via HPLC.
(§3) All samples were quenched with equal volume of EtOH containing 0.2 mg/mL internal standard (3,5-Diisopropyl-2-hydroxybenzoic acid CAS #2215-21-6) centrifuged, and clarified solutions were analyzed by HPLC-MS
(§4) • Column: 2.1×50 mm COSMOCORE PBr (Nacalai USA, Inc.) • Mobile Phase: A; 0.1% formic acid in water, B; 0.1% formic acid in acetonitrile • Flow: 0.45 mL/min • Temp: % 50 Celsius • Gradient: 20%B at 0 min, 70%B at 2.3 min, 89% B at 4.2 min, 20% B at 4.3 min, 20%B at 6 min

[2] = tested on: olivetolic acid; test: MPT fusions with GPS1.1 vs unfused MPTs, OA feed (Example 8, Table 9); format: cell-based, Yarrowia; conditions: 2 mM olivetolic acid, 48 h quench; for CBGA / FCBGA: 2% glucose, strain sCL-SE-0128; for CBGA/FCBGA: product ratio
Procedure: as §1, §2, §3, §4

Row | Molecule | CBGA [1] | FCBGA [1] | CBGA/FCBG [1] | CBGA [2] | FCBGA [2] | CBGA/FCBGA [2]
1 | B1 | 421 ± 44 µM | 113 ± 12 µM | 3.7 |  |  | 
2 | B2 |  |  |  | 98 ± 8 µM | 21 ± 2 µM | 4.6
3 | B3 | 468 ± 24 µM | 121 ± 2 µM | 3.9 |  |  | 
4 | B4 | 242 ± 36 µM | 73 ± 9 µM | 3.3 |  |  | 
5 | B5 |  |  |  | 53 ± 4 µM | 5 ± 0 µM | 10.8
